Experimental data from article PMC10503714.

Target: stressed NISTmAb monoclonal antibody
Assay: AUC; sedimentation velocity at 50,000 rpm and 20°C; c(s) analysis in SEDFIT, by command line operation and repeated by manual operation on the same data; stressed, partially denatured sample

Question: Which percent of signal in higher aggregates (command line analysis) does the source give for stressed NISTmAb monoclonal antibody here?
Answer: Its percent of signal in higher aggregates (command line analysis) is 51.8%.

Question: And the percent of signal in higher aggregates (manual analysis)?
Answer: The percent of signal in higher aggregates (manual analysis) was 51.7%.

Question: And the percent of signal in the dimer peak?
Answer: Its percent of signal in the dimer peak is 12.5%.

Question: What about the stoichiometry N of the same substance?
Answer: The stoichiometry N was 2.
